The results in this text go back to patent US20100008928A1 (Takeda / Millennium, published 2010).

Positions count from the first letter of the chain named.

As usually defined, the EC50 is the concentration that produces a half-maximal response.

The target in one test is T1, human nectin-2δ G113R (human, UniProt Q92692 32-538).
T1 construct: transient in CHO-K1; also called Nectin-2 (G113R)
T1 sequence: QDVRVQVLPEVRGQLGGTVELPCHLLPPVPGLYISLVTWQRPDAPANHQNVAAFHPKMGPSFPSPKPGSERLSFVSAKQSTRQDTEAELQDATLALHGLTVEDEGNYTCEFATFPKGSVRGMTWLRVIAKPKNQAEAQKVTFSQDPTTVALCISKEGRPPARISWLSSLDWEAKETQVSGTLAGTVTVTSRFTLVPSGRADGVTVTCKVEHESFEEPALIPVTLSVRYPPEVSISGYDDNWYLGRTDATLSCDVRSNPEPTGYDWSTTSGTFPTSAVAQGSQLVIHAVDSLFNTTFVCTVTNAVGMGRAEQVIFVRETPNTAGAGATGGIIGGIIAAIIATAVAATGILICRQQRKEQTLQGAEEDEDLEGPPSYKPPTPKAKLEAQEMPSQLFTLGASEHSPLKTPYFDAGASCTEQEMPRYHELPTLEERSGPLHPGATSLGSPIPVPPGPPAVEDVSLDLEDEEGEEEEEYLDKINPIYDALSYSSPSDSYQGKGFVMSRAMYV
In words: FCM.

Another test deals with T2, human nectin-2δ H128R (human, UniProt Q92692 32-538).
T2 construct: transient in CHO-K1; also called Nectin-2 (H128R)
T2 sequence: T1 sequence with R82G, H97R
In words: FCM.

The target in test [1] is T3, human nectin-2δ AN77-78PD (human, UniProt Q92692 32-538).
T3 construct: transient in CHO-K1; also called Nectin-2 (AN77-78PD)
T3 sequence: T1 sequence with A46P, N47D, R82G
Kind of test: FCM.
Procedure: (§1) Then, after 200 μL of FCM buffer was added to each well and washed once by centrifugal operation, 50 μL of Alexa Fluor488 goat anti-human IgG (H+L) diluted in FCM buffer to 10 μg/mL was added thereto for suspension, and the mixture was then reacted on ice for an hour. Next, the cells were washed twice with FCM buffer and resuspended in 250 μL of FCM buffer. Using flow cytometer MPL500 (BECKMAN COULTER), the fluorescence intensities of stained cells were measured, respectively.

The target of test [2] is T4, human nectin-2δ protein (human, UniProt Q92692 32-538).
T4 sequence: T1 sequence with R82G
In words: FCM.
Procedure: (§2) Then, after 200 μL of FCM buffer was added to each well and washed once by centrifugal operation, 50 μL each of Alexa488-labeled secondary antibody diluted in FCM buffer to 10 μg/mL was added thereto for suspension, and the mixture was then reacted on ice for an hour. As secondary antibodies, Alexa Fluor488 goat anti-human IgG (H+L) was used for the human antibodies and Alexa Fluor488 goat anti-rabbit IgG (H+L) (Invitrogen) was used for the rabbit antibody, respectively. Next, the cells were washed twice with FCM buffer and then resuspended in 250 μL of FCM buffer.

Test [3] concerns the target T5, cynomolgus monkey nectin-2 protein (cynomolgus monkey, UniProt Q92692 32-538 (human entry)).
T5 construct: transient in CHO-K1; also called maNectin-2
T5 chain: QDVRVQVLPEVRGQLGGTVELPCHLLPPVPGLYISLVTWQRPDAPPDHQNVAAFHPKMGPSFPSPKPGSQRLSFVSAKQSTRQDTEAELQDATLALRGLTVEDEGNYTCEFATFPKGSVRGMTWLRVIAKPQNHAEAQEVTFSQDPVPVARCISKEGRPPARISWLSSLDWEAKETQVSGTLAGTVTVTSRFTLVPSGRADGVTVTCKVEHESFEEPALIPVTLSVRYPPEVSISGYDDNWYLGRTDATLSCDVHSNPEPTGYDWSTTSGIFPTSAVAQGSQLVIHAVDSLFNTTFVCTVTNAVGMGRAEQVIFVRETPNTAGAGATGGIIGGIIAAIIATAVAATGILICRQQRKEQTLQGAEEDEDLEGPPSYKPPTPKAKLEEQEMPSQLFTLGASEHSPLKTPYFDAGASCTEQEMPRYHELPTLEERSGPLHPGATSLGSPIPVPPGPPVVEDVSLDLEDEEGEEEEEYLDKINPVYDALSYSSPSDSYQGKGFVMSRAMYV
Kind of test: FCM.
Procedure: as §2

Test [4] has as its target T4, human nectin-2δ protein. Kind of test: Cell ELISA. (An ELISA detects its analyte on a solid surface through an enzyme-linked reagent.)
Procedure: In other words, the CHO cell line (#43-2) stably expressing nectin-2δ and the mock-CHO cell line were incubated in a 96-well tissue culture plate charged with GS-selection DMEM medium supplemented with 10% dialyzed FBS and GS supplement. After the culture supernatant of the plate where each cell line became confluent was removed by aspiration, 200 μL/well of PBS(+) supplemented with 2% FBS was added thereto and incubated on ice in the dark for an hour. After the supernatant of each well was removed by aspiration, 50 μL each/well of the hybridoma culture supernatant was added and reacted on ice in the dark for 2 hours. After this plate was washed once with PBS(+) chilled at 4° C., anti-human IgG (H+L) chain specific (GOAT) peroxidase conjugate (CALBIOCHEM) diluted to 3,000-fold with PBS(+) supplemented with 2% FBS was added by 100 μL each/well and reacted on ice in the dark for 2 hours. […] Absorbance (450 nm) of each well was measured using a plate reader (Multiskan BICHROMATIC; Thermo Electron Co.), and those showing absorbance of 0.5 or more in the nectin-2 expression CHO cell line plate and showing absorbance of less than 0.3 in the mock-CHO cell line plate were judged to be positive wells. […]
Test [5] has as its target T6, nectin-2 Ig1 domain-deficient protein (human, UniProt Q92692 32-538).
T6 construct: transient in CHO-K1; also called delta-Ig1; Nectin-2ΔIg1
T6 sequence: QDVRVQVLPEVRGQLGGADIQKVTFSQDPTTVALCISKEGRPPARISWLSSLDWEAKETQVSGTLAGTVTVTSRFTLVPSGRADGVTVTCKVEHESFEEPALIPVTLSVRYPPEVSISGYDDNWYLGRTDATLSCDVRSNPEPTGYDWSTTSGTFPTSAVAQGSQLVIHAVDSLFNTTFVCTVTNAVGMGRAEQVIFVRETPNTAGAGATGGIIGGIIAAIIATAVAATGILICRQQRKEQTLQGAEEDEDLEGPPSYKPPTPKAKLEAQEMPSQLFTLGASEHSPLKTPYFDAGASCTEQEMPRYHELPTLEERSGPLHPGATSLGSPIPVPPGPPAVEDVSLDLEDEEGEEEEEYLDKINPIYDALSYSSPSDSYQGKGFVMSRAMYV
Kind of test: FCM.
Procedure: (§3) After 200 μL of FCM buffer was added to each well and washed once by centrifugal operation, 50 μL each of Alexa488-labeled secondary antibody diluted in FCM buffer to 10 μg/mL was added to and mixed therewith, and the mixture was then reacted on ice for an hour. The Alexa488-labeled secondary antibody used was Alexa Fluor488 goat anti-human IgG (H+L) for the human antibodies and Alexa Fluor488 goat anti-rabbit IgG (H+L) (Invitrogen) for the rabbit antibody. The cells in each well were washed twice with FCM buffer and then resuspended in 250 μL of FCM buffer. Using the flow cytometer MPL500 (BECKMAN COULTER), the fluorescence intensity of stained cells was measured to determine the ratio of the median value of fluorescence intensities of the respective antibodies in the primary antibody group to the median value of fluorescence intensities in the negative control group.

In test [6] the target is T7, nectin-2 Ig2 domain-deficient protein (human, UniProt Q92692 32-538).
T7 construct: transient in CHO-K1; also called delta-Ig2; Nectin-2ΔIg2
T7 sequence: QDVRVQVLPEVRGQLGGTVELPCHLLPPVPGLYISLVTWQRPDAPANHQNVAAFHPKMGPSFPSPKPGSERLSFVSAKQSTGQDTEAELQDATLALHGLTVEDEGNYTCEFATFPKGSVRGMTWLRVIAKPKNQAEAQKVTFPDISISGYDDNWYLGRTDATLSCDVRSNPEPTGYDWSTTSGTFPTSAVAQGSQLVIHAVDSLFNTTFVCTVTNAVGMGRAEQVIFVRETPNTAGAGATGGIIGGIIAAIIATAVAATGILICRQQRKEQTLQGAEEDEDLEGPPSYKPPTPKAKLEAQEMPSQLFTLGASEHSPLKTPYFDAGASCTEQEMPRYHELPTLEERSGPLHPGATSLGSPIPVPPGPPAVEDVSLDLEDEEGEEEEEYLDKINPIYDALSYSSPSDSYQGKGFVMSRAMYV
In words: FCM.
Procedure: as §3

Procedure for human nectin-2δ G113R: as §1
Procedure for human nectin-2δ H128R: as §1

B1: Nec1-554-1 (antibody, human IgG1, V domains shown)
VH: EVQLVESGGGLVKPGGSLRLSCAASGFTFSSYNMNWVRQAPGKGLEWVSSISSSSSYIYYADSVKGRFTISRDNAKNSLYLQMNSLRAEDTAVYYCARDYYGSGTYYLFDYWGQGTLVTVSS
VL: EIVLTQSPDFQSVTPKEKVTITCRASQSIGSSLHWYQQKPDQSPKLLIKYASQSFSGVPSRFSGSGSGTDFTLTINSLEAEDAAAYYCHQSRSLPITFGQGTRLEIK
notes: human IgG1/k from hybridoma FERM BP-10681
Turning to B1, the median fluorescence ratio stood at 38.7 in the test with human nectin-2δ G113R; 51.5 in the test with human nectin-2δ H128R; 44.2 in test [1]; 43 with human nectin-2δ protein [2]; 14.8 in test [3]; 3.6 in test [5]. The molecule further returned an EC50 in the test with human nectin-2δ protein [4] of 1.11 nM. Besides, the binding result in test [6] is listed as “no binding (tested: ratio <2 = no reactivity; 6 µg/mL)”.
